Experimental findings from patent US20240228562A1 (Pieris, published 2024) are described below.

As a reminder, the Kd is a measure of binding affinity in units of concentration. By koff is commonly meant a measure of how fast the partners let go of each other. What is called kon is the rate constant with which the complex forms. The term EC50 denotes the concentration needed to bring the measured effect to its halfway point.

Residue numbers refer to the chain shown, from its start.

Assay [1] concerns the target T1, recombinant human CTGF-Fc protein (Creative Biomart) (human).
T1 construct: Bought; also called human CTGF with a human IgG1 Fc Tag
The experiment in a line: SPR (Biacore). The method, boiled down:
(§1)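 Lipocalin muteins injected at 25 °C over CTGF either Fc-tagged and captured by anti-human IgG-Fc (0.25-2.5 μg/mL in HBS-EP+, 180 s) or amine-coupled directly to a CM5 chip. Association 180 s, dissociation 900-3600 s, flow 30 μL/min.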
Background: In SPR one partner is held on a chip, and binding of the other changes the refractive index at the surface.

In another assay the target is T2, mouse CTGF (Abbexa) (mouse, UniProt P29268 26-348, limits assumed).
T2 construct: also called Murine CTGF; mCTGF
T2 sequence (looked up): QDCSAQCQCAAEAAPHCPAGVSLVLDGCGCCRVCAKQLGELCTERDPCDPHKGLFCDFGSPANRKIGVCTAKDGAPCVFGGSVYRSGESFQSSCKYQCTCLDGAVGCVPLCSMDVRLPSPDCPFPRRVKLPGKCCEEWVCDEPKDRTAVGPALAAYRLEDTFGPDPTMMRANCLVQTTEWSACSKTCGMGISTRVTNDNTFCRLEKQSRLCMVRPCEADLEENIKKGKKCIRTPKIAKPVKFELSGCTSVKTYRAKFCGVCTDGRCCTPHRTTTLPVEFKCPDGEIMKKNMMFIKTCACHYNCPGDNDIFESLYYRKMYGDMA
The experiment in a line: SPR (Biacore). The method in brief:
as §1

The target in assay [2] is T3, recombinant rat CTGF protein (R&D Systems) (rat, UniProt Q9R1E9 25-347).
T3 construct: Bought; also called rCTGF
T3 sequence: T2 sequence (looked up) with H16R, A148V
The experiment in a line: SPR (Biacore). The method in brief:
as §1

Assay [3] addresses T3, recombinant rat CTGF protein (R&D …). The experiment in a line: ELISA, coated target.
For assay [4], the target named is T4, recombinant human CTGF protein (R&D Systems, SEQ ID NO: 79) (human, UniProt P29279 27-349).
T4 construct: Bought; also called human CTGF/CNN2; huCTGF
T4 sequence: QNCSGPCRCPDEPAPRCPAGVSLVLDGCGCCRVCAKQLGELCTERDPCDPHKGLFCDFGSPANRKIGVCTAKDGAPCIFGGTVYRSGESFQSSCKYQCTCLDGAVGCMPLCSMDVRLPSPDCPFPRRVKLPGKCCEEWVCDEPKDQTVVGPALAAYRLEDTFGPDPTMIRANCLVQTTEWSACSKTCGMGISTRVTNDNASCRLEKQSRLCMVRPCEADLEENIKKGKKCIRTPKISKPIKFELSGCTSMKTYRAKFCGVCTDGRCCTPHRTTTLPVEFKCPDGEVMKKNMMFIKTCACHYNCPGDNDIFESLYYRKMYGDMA
The assay is described as follows: ELISA, coated target. Background: ELISA stands for enzyme-linked immunosorbent assay.

Assay [5] concerns the target T5, murine CTGF (Biozol, SEQ ID NO: 80) (murine).
T5 construct: Bought; also called muCTGF
The assay is described as follows: ELISA, coated target.

Assay [6] addresses T6, huCTGF domains 1 and 2 with human Fc tag (human).
T6 construct: Made by Evitria; also called Human CTGF1-2-huFc
The experiment in a line: ELISA, coated target.

Assay [7] concerns the target T7, muCTGF domains 1 and 2 with human Fc tag (murine).
T7 construct: Made by Evitria; also called Murine CTGF1-2-huFc
The experiment in a line: ELISA, coated target.

The next assay concerns the target T8, cynomolgus CTGF (cynomolgus, UniProt I7G525 27-349).
T8 construct: also called cyCTGF
T8 sequence: T4 sequence with D11A, P13Q, M250V
The experiment in a line: SPR (Biacore). The method, boiled down: as §1

T1 sequence (chain, as listed by the source limits assumed): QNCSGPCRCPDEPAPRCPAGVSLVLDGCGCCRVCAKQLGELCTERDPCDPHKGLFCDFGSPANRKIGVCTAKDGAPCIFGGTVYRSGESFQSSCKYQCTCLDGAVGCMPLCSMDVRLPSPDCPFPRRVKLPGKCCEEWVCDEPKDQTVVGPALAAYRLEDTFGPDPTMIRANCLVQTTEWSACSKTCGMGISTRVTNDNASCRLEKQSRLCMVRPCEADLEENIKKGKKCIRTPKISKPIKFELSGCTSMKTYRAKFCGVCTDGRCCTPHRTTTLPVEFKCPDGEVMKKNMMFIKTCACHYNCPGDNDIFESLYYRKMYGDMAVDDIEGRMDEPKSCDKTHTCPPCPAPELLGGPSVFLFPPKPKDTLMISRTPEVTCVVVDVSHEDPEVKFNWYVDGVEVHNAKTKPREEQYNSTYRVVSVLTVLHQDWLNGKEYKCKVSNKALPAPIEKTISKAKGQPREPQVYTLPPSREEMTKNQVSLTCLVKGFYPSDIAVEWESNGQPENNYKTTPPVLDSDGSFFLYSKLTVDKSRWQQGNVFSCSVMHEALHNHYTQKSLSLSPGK
T7 sequence (chain, as listed by the source limits assumed): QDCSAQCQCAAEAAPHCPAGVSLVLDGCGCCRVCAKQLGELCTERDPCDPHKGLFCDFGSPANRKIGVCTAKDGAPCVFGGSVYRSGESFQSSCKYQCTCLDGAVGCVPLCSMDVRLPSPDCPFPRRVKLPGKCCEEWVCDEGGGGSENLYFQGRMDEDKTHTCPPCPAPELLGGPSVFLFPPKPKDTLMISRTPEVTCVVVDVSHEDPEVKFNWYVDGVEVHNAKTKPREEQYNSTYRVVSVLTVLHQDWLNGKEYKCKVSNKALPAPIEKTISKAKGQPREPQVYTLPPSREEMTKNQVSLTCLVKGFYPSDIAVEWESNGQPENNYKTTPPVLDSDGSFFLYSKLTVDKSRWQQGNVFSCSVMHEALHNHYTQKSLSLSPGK

B1: lipocalin mutein of SEQ ID NO: 9 (designed binder)
chain: QDSTSDLIPAPPLSKVPLQQNFQDNQFHGKWYVVGLAGNKILRIDKQPAKMFATIYELKEDKSYDVTSVRFEARSCSYTIKTFVPGSQPGEFTAGNIKSAPGQTSTLVRVVSTNYNQHAMVFFKHVSQNRETFVITLYGRTKELTSELKENFIRFSKSLGLPENHIVFPVPIDQCIDGSAWSHPQFEK
notes: Parent hNGAL mutein; also called hNGAL mutein
Regarding B1, the dissociation constant Kd in assay [1] stood at 12.8 nM; with mouse CTGF (Abbexa) it was 6.26 nM; in assay [2] it was 16 nM. Moreover, the koff is 0.00102 s⁻¹ in assay [1], 0.000832 s⁻¹ with mouse CTGF (Abbexa) and 0.00169 s⁻¹ in [2]. Also, the results for the kon (in assay [1]; with mouse CTGF (Abbexa); in assay [2]) were 79800 M⁻¹ s⁻¹, 133000 M⁻¹ s⁻¹ and 105000 M⁻¹ s⁻¹, respectively. In addition, the EC50 in assay [3] was determined as 30 nM; in [4] it was 14 nM; in assay [5] it was 11 nM; in [6] it was 8 nM; in [7] it was 5.8 nM.

B2: lipocalin mutein of SEQ ID NO: 29 (designed binder)
chain: QDSTSDLIPAPPLSKVPLQQNFQDNQFHGKWYVVGWAGNIKLREDKDPFKMSATIYELKEDKSYNVTEVVFEQKKCHYIIKTFVPGSQPGEFTLGDIKSPPGETSSLVRVVSTNYNQHAMVFFKKVFQNREFFWITLYGRTKELTSELKENFIRFSKSLGLPENHIVFPVPIDQCIDGSAWSHPQFEK
notes: as for B1
Take B2: the Kd in assay [1] amounted to 11.2 nM; in [2], 18 nM. The off-rate constant (koff) turned out to be 0.00112 s⁻¹ in assay [1] and 0.00317 s⁻¹ in [2]. Besides, the figures for the kon in assay [1] and in [2] were 100000 M⁻¹ s⁻¹ and 176000 M⁻¹ s⁻¹, respectively. The binding result is “no binding (tested: typically 0.43-2000 nM)” with mouse CTGF (Abbexa) and “no binding (tested: dilutions starting at 1000 nM)” in assay [5]. Also, the EC50 was 20 nM in assay [3], 11 nM in assay [4], 8.4 nM in assay [6] and 17 nM in [7].

B3: lipocalin mutein of SEQ ID NO: 15 (designed binder)
chain: QDSTSDLIPAPPLSKVPLQQNFQDNQFQGKWYVVGLAGNAILREDKQPAKMFATIYELKEDKSYDVTSVRFEAKSCKYTIKTFVPGSQPGEFTAGYIKSAPGQTSTLVRVVSTNYNQHAMVFFKHVTQNREIFVITLYGRTKELTSELKENFIRFSKSLGLPENHIVFPVPIDQCIDG
notes: also called hNGAL mutein; not shown: C-terminal His-tag
In the case of B3, the Kd is 0.547 nM in [1], 0.707 nM in the assay with cynomolgus CTGF, 0.349 nM with mouse CTGF (Abbexa) and 0.95 nM in assay [2]. The koff is 4.47e-05 s⁻¹ in assay [1], 7.57e-05 s⁻¹ in the assay with cynomolgus CTGF, 4.51e-05 s⁻¹ in the assay with mouse CTGF (Abbexa) and 0.000114 s⁻¹ in assay [2]. Also, the kon was determined as 81700 M⁻¹ s⁻¹ in assay [1], 107000 M⁻¹ s⁻¹ with cynomolgus CTGF, 129000 M⁻¹ s⁻¹ in the assay with mouse CTGF (Abbexa) and 120000 M⁻¹ s⁻¹ in assay [2].

B4: lipocalin mutein of SEQ ID NO: 25 (designed binder)
chain: QDSTSDLIPAPPLSKVPLQQNFQDNQFHGKWYVVGMAGNFRLREDKDPSKMGATIYELKEDKSYNVTQVQFDDKKCLYVIETFVPGSQPGEFTLGAIKSFPGFTSQLVRVVSTNYNQHAMVFFKKVYQNREVFWITLYGRTKELTSELKENFIRFSKSLGLPENHIVFPVPIDQCIDGSAWSHPQFEK
notes: as for B1
Consider B4, for which the Kd in assay [1] worked out at 9.27 nM; in assay [2], 27.7 nM. The koff turned out to be 0.000248 s⁻¹ in assay [1] and 0.00129 s⁻¹ in assay [2]. For the same molecule, the kon in [1] is 26800 M⁻¹ s⁻¹; in [2], 46500 M⁻¹ s⁻¹. Further, the binding result with mouse CTGF (Abbexa) is “no binding (tested: typically 0.43-2000 nM)”; in [5], “no binding (tested: dilutions starting at 1000 nM)”. Moreover, the EC50 amounted to 23 nM in assay [3], 11 nM in assay [4], 8.8 nM in assay [6] and 14 nM in assay [7].

B5: lipocalin mutein of SEQ ID NO: 7 (designed binder)
chain: QDSTSDLIPAPPLSKVPLQQNFQDNQFHGKWYVVGLAGNYGLRTDKRPSKMFATIYELKEDKSYDVTSVRFEQERCHYTIRTFVPGSQPGEFTTGSIKSRPGQTSSLVRVVSTNYNQHAMVFFKSVIQNREYFAITLYGRTKELTSELKENFIRFSKSLGLPENHIVFPVPIDQCIDGSAWSHPQFEK
notes: as for B1
Regarding B5, the Kd in [1] is 60.2 nM; in assay [2] it was 62.8 nM. Besides, the values for the koff in assay [1] and in [2] were 0.00587 s⁻¹ and 0.00754 s⁻¹, respectively. Besides, the on-rate constant (kon) was determined as 97600 M⁻¹ s⁻¹ in assay [1] and 120000 M⁻¹ s⁻¹ in assay [2]. Also, the EC50 is 41 nM in [3]; 34 nM in assay [4]; 29 nM in assay [5]; 17 nM in assay [6]; 14 nM in assay [7].

B6: lipocalin mutein of SEQ ID NO: 3 (designed binder)
chain: QDSTSDLIPAPPLSKVPLQQNFQDNQFHGKWYVVGRAGNNRLREDKDPPKMWATIYELKEDKSYNVTHVHFMTKKCRYIIDTFVPGSQPGEFTLGAIKSGPGMTSPLVRIVSTNYNQHAMVFFKWVNQNREWFTITLYGRTKELTSELKENFIRFSKSLGLPENHIVFPVPIDQCIDGSAWSHPQFEK
notes: as for B1
Turning to B6, in [1], the Kd is 37.5 nM, the koff was 0.00749 s⁻¹ and the kon turned out to be 200000 M⁻¹ s⁻¹. Besides, in assay [2], the Kd came out at 39.3 nM, the koff stood at 0.0117 s⁻¹ and the kon came out at 297000 M⁻¹ s⁻¹. In [4], the EC50 was found to be 6.9 nM. The binding result in [6] is listed as “no binding (tested: dilutions starting at 1000 nM)”. In addition, in [7], the binding result is “no binding (tested: dilutions starting at 1000 nM)”.
